Experimental data: US20180142007A1 (AXON NEUROSCIENCE, published 2018)

Assays:
Test in all cases: direct ELISA, tau peptide coated on plate
[1] = molecular target: T1, tau peptide 256-285 (human)
T1 construct: Synthetic peptide (EZBiolabs), numbered on tau 2N4R
T1 peptide: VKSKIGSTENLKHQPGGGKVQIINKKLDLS

[2] = molecular target: T2, tau peptide 282-311 (human)
T2 construct: Synthetic peptide (EZBiolabs), numbered on tau 2N4R; also called peptide derived from MTBRII
T2 peptide: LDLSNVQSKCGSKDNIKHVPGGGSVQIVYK

[3] = molecular target: T3, tau peptide 314-342 (human)
T3 construct: Synthetic peptide (EZBiolabs), numbered on tau 2N4R
T3 peptide: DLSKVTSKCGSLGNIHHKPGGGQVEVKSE

[4] = molecular target: T4, tau peptide 352-380 (human)
T4 construct: Synthetic peptide (EZBiolabs), numbered on tau 2N4R
T4 peptide: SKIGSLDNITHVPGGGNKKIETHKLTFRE

Measured: binding result

B1: chimeric DC8E8 (isotype not stated where tested) (antibody)
VH: QVQLQQSGPELVKPGTSVKMPCKASGYIFTDYVISWVKQRTGQGLEWIGEIFPRSGSTYYNEKFKGKATLTADKSSNTAYMQLSSVTSEDSAVYFCARDYYGTSFAMDYWGQGTSVTVSS
light: DIVMSQSPSSLAVSAGEKVTMSCKSSQSLLNSRTRKNYLAWYQQKPGQSPKLLIYWASTRESGVPDRFTGSGSGTDFTLTISSVQAEDLAVYYCKQSFYLRTFGGGTKLDIKRTVAAPSVFIFPPSDEQLKSGTASVVCLLNNFYPREAKVQWKVDNALQSGNSQESVTEQDSKDSTYSLSSTLTLSKADYEKHKVYACEVTHQGLSSPVTKSFNRGEC
notes: Whole chimeric antibody with human constant regions; also called chimeric antibody
binds: all assays above

B2: mouse monoclonal antibody DC8E8 (antibody, mouse IgG1)
heavy: QVQLQQSGPELVKPGTSVKMPCKASGYIFTDYVISWVKQRTGQGLEWIGEIFPRSGSTYYNEKFKGKATLTADKSSNTAYMQLSSVTSEDSAVYFCARDYYGTSFAMDYWGQGTSVTVSSAKTTPPSVYPLAPGSAAQTNSMVTLGCLVKGYFPEPVTVTWNSGSLSSGVHTFPAVLQSDLYTLSSSVTVPSSTWPSQTVTCNVAHPASSTKVDKKIVPRDCGCKPCICTVPEVSSVFIFPPKPKDVLTITLTPKVTCVVVDISKDDPEVQFSWFVDDVEVHTAQTKPREEQINSTFRSVSELPIMHQDWLNGKEFKCRVNSAAFPAPIEKTISKTKGRPKAPQVYTIPPPKEQMAKDKVSLTCMITNFFPEDITVEWQWNGQPAENYKNTQPIMDTDGSYFVYSKLNVQKSNWEAGNTFTCSVLHEGLHNHHTEKSLSHSPGK
VL: DIVMSQSPSSLAVSAGEKVTMSCKSSQSLLNSRTRKNYLAWYQQKPGQSPKLLIYWASTRESGVPDRFTGSGSGTDFTLTISSVQAEDLAVYYCKQSFYLRTFGGGTKLDIK
notes: also called murine DC8E8; mouse DC8E8
binds: [1] | [3] | [4]
